B1: myristoylated M-PMV MA protein extended by 18 amino acids of the downstream phosphoprotein region of Gag (myrMAPP) (domain or fragment)
chain: GQELSQHERYVEQLKQALKTRGVKVKYADLLKFFDFVKDTCPWFPQEGTIDIKRWRRVGDCFQDYYNTFGPEKVPVTAFSYWNLIKELIDKKEVNPQVMAAVAQTEEILKSNSQTDL
modifications: N-terminal myristoyl; uniformly 15N-labelled in some NMR and mixed-isotope XL-MS samples
notes: source: E. coli BL21 (DE3), co-transformed with a plasmid coding yeast N-myristoyl transferase, purified (Ni-NTA agarose)
B2: non-myristoylated M-PMV MA protein extended by 18 amino acids of the downstream phosphoprotein region of Gag (MAPP) (domain or fragment)
chain: B1 chain

Molecular target: T1, calmodulin (CaM), human calmodulin-1 (human, UniProt P0DP23 1-149)
T1 construct: also called CaM-NHS-Red
Experiment: MST; Red-NHS-labelled CaM kept constant (466 nM in the results, 50 nM in the methods), (myr)MAPP titrated; 50 mM Tris-HCl, 100 mM NaCl, 0.05% Tween 20, pH 7.4, with 20 mM CaCl2; 25 °C; triplicates
Conditions: both partners purified

Row | Binder | Kd
1 | B1 | 4.2 µM
2 | B2 | 33 µM

Source: paper PMC12858339 (The Journal of Biological Chemistry, 2025)
